Test results reported in the supplement of paper PMC9170038.

System: MS2 coat protein
Test: apparent KD of MS2 coat protein; designed switch direction (-1 OFF switch, 1 ON switch): -1; higher = weaker reporter binding
In short: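 RNA switches sharing common flanks were transcribed by stalled E. coli RNA polymerase on Illumina chips. A doubling series of SNAP-549-labelled MS2 coat protein, from 0.7 or 1.5 nM to 3 µM, was applied in Tris-HCl pH 7.5 buffer with KCl, MgCl2, BSA, DTT, tRNA and Tween-20. Each step lasted 0.8–1.5 h at the bottom of the series and 10–20 min at the top. Normalised cluster fluorescence was curve-fitted, giving apparent KD as the per-design median over clusters.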

[1] = Eterna round: R95, input ligand: FMN 200 uM
[2] = Eterna round: R95, input ligand: microRNA oligo, concentration not stated
[3] = Eterna round: R95, input ligand: none
[4] = input ligand: microRNA oligo, concentration not stated

Sequence	apparent KD of MS2 coat protein [1]	apparent KD of MS2 coat protein [2]	apparent KD of MS2 coat protein [3]	apparent KD of MS2 coat protein (input ligand: FMN 200 uM)	apparent KD of MS2 coat protein (input ligand: none)	apparent KD of MS2 coat protein [4]
UACUAAAAGGAGGAUAUCGUAUCGGAAACGAUACGAGAAGGCUUAACAUGAGGAUCACCCAUGUUCUUCAAUAA [Mat - Exclusion 6 - Eli Mod - D88] (puzzle: Exclusion 6)	24.6 nM	17.3 nM	16.4 nM			
ACCCAACAUGAGGAUCACCCAUGUCAGGAUAUCCAAGCGAAAGCAAAAGCGAAAGCAAGGAGAAGGGACAGAGG [ChP 04-04-2015 #6] (puzzle: Exclusion 1)	308 nM	90 nM	180 nM			
UACAGACAUGAGGAUCACCCAUGUUAGGAUAUGCAGAACUCUACUCACGUGGCGUUUAGCAGAAGGAAUACGGG [Eternabot (L1) Solution 68] (Eterna round: R97, puzzle: Exclusion 1)				122 nM	74.6 nM	
UUUUUGUCAGGAUAUGAUUAGAUCUACUUUUGUAGAUCUAAUCAGAAGGGACAUGAGGAUCACCCAUGUAGUUU [Ex4 - 3 - 11] (puzzle: Exclusion 4)		35.7 nM				
AAGAAACAUGAGGAUCACCCAUGUGAGGAUAUGAAAAAGAAAAGAAAAUAAAGAAGAAUCAGAAGGCACAAAGG [Mat - Mod of Hog D3] (puzzle: Exclusion 1)	37.7 nM	34.4 nM	46.1 nM			
GUUCAACAUGAGGAUCACCCAUGUCAGGAUAUGCGAAUUUCAUCAAAAGAUGAAAUUUGCAGAAGGGACUGAAC [Omei Ex1 A30] (Eterna round: R97, puzzle: Exclusion 1)				30.5 nM	27.2 nM	
CUAUUGUGAGGAUAUCAGUAGUAAUACAAUAGUAUUACUACUGAGAAGGCACAUGAGGAUCACCCAUGUUCCUU [Mat - Exclusion 4 - Mod of Omei - D76] (puzzle: Exclusion 4)		14.4 nM				
GGAAAGCAAGGAUAUACAAGUAAACGACGGAAAGUAGAGAGACAUGAGGAUCACCCAUGUAGAAGGUGCGAGAG [JR_Exclu2_Sub035] (puzzle: Exclusion 2)	19 nM	26.9 nM	20.1 nM			
CGAUAUAAGUCAGGAUAUGAGCGCAACUGACGAUCAGAAGGGACACAUGAGGAUCACCCAUGUGAUUUAUCAAUAUUAUACAUC [Prohibition 91 - Jieux - Exclusion NG 1] (Eterna round: R96, puzzle: Exclusion NG 1)				36.5 nM	31.6 nM	27.3 nM
AGAUGCUCAAGUCGACAUGAGGAUCACCCAUGUACAGUUAAUGAGGAUAUCUGAGAUAAAUAAUAGGAGAAGGCGUGAACAUGA [Ex NG3 #9] (Eterna round: R96, puzzle: Exclusion NG 3)				25.9 nM	34.9 nM	20.3 nM
GAGAUGUGAGGAUAUCUAGACCGCGGCAGAGCUGCGGUCCGAGAGAAGGCACAUGAGGAUCACCCAUGUGAUGA [Beriesan] (puzzle: Exclusion 4)		47.3 nM				
AGCUUUUUGUUUUUGGGUGACAUGAGGAUCACCCAUGUCUUAUGGGCCCAAUAAUAAUAAAAUAAAAGGGACCCACG [-20.8, -41.27, a 31%] (Eterna round: R97, puzzle: Sensor, turn-off variant 1)				457 nM	208 nM	
GUGUACAGAGGAUAUACAAGAGGAGUUACGAAAGUAACUUCACAUGAGGAUCACCCAUGUAGAAGGCUGUACAC [Dot plot directed v7] (puzzle: Exclusion 2)		21.2 nM				
ACACAAGCCCUUUGCUCGUUUUAAUACAGCGGGCUCUUCACAUGAGGAUCACCCAUGUAGGCCUUGUUCCAAGGCCG [Rebileve] (puzzle: Sensor v3, turn-off variant 2)	20.4 nM	23.6 nM	20 nM			
AUCUGCACGCUGCGGUCCUACAUGAGGAUCACCCAUGUGGUCUGGUGGCGUGGGUCACCGGACUUGGCUCGUCUUGC [salish99_S_TOV1_R5_054] (Eterna round: R97, puzzle: Sensor, turn-off variant 1)				19.8 nM	19.6 nM	
UCAUGGGAGCGAGGAUAUAGCCCAUGUGAAGAACUAGAAGGCGCAGACAUGAGGAUCACCCAUGUGUUCAUGAGGAGGUGGACA (Eterna round: R96, puzzle: Exclusion NG 1)				215 nM	83.4 nM	82.5 nM
CAAUUCCGAGGAUAUACAUGAGGAUCACCCAUGUCGGGCCUCAGCGUUUAGCGCCUAAGUAGAAGGUGGGUUUC [JL Riri mod 4] (puzzle: Exclusion 3)		37.1 nM				
GGUGCUGGCGCGUCGGUGUUGGUGCAAUAAGCUUGUGAAACAUGAGGAUCACCCAUGUCCUCAUGGGCUCGUCUUGU [salish99_TOv2_r2_089] (puzzle: Sensor v3, turn-off variant 2)	123 nM	13 nM	138 nM			

Sequence	apparent KD of MS2 coat protein [1]	apparent KD of MS2 coat protein [2]	apparent KD of MS2 coat protein [3]	apparent KD of MS2 coat protein (input ligand: FMN 200 uM)	apparent KD of MS2 coat protein (input ligand: none)	apparent KD of MS2 coat protein [4]
UUGGUGUCAGGAUAUGCUUAAUGUGUUUUAUUAUAAUAUAUACAUGAGGAUCACCCAUGUAGAAGGGACAUUGU [LRO-Excl2-09-Fireball XL5] (Eterna round: R97, puzzle: Exclusion 2)				48 nM	48.5 nM	
GAUUAACAUGAGGAUCACCCAUGUGAGGAUAUGGACUUGCCCACUUACCCAUUAGAGUCUAGAAGGCGCAUCUC [1986#2\9] (Eterna round: R97, puzzle: Exclusion 1)				25.7 nM	25.3 nM	
GGAUCGAAUGUGAGGAUAUACCACUGGAUACAGUGGUAGAAGGCACAUGAGGAUCACCCAUGUCCUUACGAUCC [Fiskers BMX 4 - 47] (puzzle: Brourd's mod of Exclusion 4)		74.2 nM				
UGUUGUCGCGCAGGAUAUGAGGAUCACCCAUGUAGAGGAUAUGAAAAGAAGGCUCUGAGGAUUACCCAGAAGGGCGGGACAACU [pwkr exNG2 2xF5 2xFMN.25] (Eterna round: R96, puzzle: Exclusion NG 2)				800 nM	400 nM	270 nM
AGCUUUUUGUUCGUCUUAUACAUGAGGAUCACCCAUGUAUUGGACCGCAUCGAUAGAUGUAGACCGAGAAGCAUGGG [Omdei Mir OFFv1 C6] (Eterna round: R97, puzzle: Sensor, turn-off variant 1)				63 nM	55.3 nM	
CAGUACAGAGGAUAUACAUGAGGAUCACCCAUGUGUUUCAGCUAGGAAACUAGCGAAUGUAGAAGGCUGUACUG [jl-ex3-4.24 salish99 mod] (Eterna round: R97, puzzle: Exclusion 3)				178 nM	38.3 nM	
CGAAUUAUAGGAUAUACAUGAGGAUCACCCAUGUAACCGUGACUGGGAUGCGUCUCAAGUAGAAGGAUAGGCGC [Eternabot (L1) Solution 9] (Eterna round: R97, puzzle: Exclusion 3)				27.2 nM	14.3 nM	
AUACCACGAGGAUAUCGUCUAUUUCACAUGAGGAUCACCCAUGUUAUCUUUGUUUCGUUUCGAGAAGGCGUGUUUU [JR_E5_Sub077] (puzzle: Exclusion 5)		30.1 nM				
AAUAACAGAGGAUAUACUGUUUUAUGUGUUUGUUAUUUUAAACAUGAGGAUCACCCAUGUAGAAGGCUGAAUAA [JMF 15] (puzzle: Exclusion 2)		19.8 nM				
AGAGUGCUGCGAGGAUAUACAUGAGGAUCACCCAUGUAUUAGUGUGAGGCUUUGCCUCACACAAUGUAGAAGGCGCAGUACUCA [Mat - Exclusion NG 2 - Mod of JL - D8] (Eterna round: R96, puzzle: Exclusion NG 2)				6.8 nM	12.4 nM	11.1 nM
UUUUACAUCUAUGGGAGUGACAUGAGGAUCACCCAUGUAUGUCUUGUUUUUUGUUCGUCUAGGACUUUCUGAUCAGU [JR_SV3TOV1_Sub033] (puzzle: Sensor v3, turn-off variant 1)	565 nM	222 nM	730 nM			
GGUACUCAAAGAGUACCAAUACGAACAUGAGGAUCACCCAUGUAGGAUAUGCUACUCAAAGAGUAGCAGAAGGACAUGAACCCU [Far Half Aptamer v7] (Eterna round: R96, puzzle: Exclusion NG 3)				571 nM	61.8 nM	38.3 nM
UCAGGUGCAGGAUAUACAUGAGGAUCACCCAUGUAGAUCAACCAGCGAUAGCUGGAAUGUAGAAGGGCACCUGA [E3/5-D2] (Eterna round: R97, puzzle: Exclusion 3)				100 nM	19.7 nM	
GUUAAGGUAGGAUAUACGAUAAUAUAGGGUAGAUAUAUAACACAUGAGGAUCACCCAUGUAGAAGGACCAAGUG [Mat - Exclusion 2 - Mod of my Tesla design - D60] (puzzle: Exclusion 2)		43.4 nM				
CGCUACGAAGUCAGGAUAUCAGAACAAGAUAAAUAUGAGAAGGGACAUGAGGAUCACCCAUGUUCGGUGGUAGC [BmEX4 A.14] (Eterna round: R97, puzzle: Brourd's mod of Exclusion 4)				24.6 nM	21.1 nM	
UACAUGAGGAUCACCCAUGUUUUGUCGUGUUUGGUACCCGUUUAGGAUAUCGUGUUAUUGGACCGCGAGAAGGAGAGUAUCAUU [Excl-NG3-LRO06] (Eterna round: R96, puzzle: Exclusion NG 3)				32.2 nM	39.9 nM	18.4 nM
AACCUGAGGCUUUGCUUUAGGUGUACAUGAGGAUCACCCAUGUAGGAUAUGGUAGGCUUUGCUUACCAGAAGGACAUAAUGAUG [JL ENG3 1.16] (Eterna round: R96, puzzle: Exclusion NG 3)				81.1 nM	55.2 nM	30.6 nM
